Assay results from the RNAGym collection of RNA variant scans (doi:10.1073/pnas.2313332121).

B1: TPR t1 (parent)
chain: GACCAAUCUGCCCUCAGAGCUCGAGAACAUCUUCGGAUGCAGAGGAGGCAGGCUUCGGUGGCGCGAUAGCGCCAACGUCCUCAACCUCCAAUGCAUCCCACCACAUGAUGAUGCCUGAAGAGCCUUGGUUUUUUG

Variants of: B1
Test: polymerase ribozyme fitness, log enrichment relative to wild type (log ratio); higher = more active; in vitro selection for triplet polymerase activity
Outline: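 Mutant libraries of both subunits of a heterodimeric triplet polymerase ribozyme were PCR-built, transcribed, and selected once in triplicate, with frozen incubation at −7 °C and capture of gel-excised extended constructs on streptavidin beads before RT-PCR. Illumina sequencing of input and output libraries was filtered to genotypes with ≥10 input reads and ≥1 read per output. Fitness is the logarithm of genotype enrichment over wild-type enrichment, using inverse-variance-weighted replicate averages. The logarithm is base 2.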

Row | Variant | polymerase ribozyme fitness (log ratio)
1 | GACCAAUCUGCCCUCAGAGCUCGAGAACAUCUUCGGAUGCAGAGGAGGCAGGCUUAGGUGGCGCGAUAGCGCCAACGUCCUCACCCUCCAAUGCAUCCCACCACAUGAUGAUGCCUGAAGAGCCUUGGUUUUUUG | -1.1
2 | GACCAAUCUGCCGUCAGAGCUCGAGAACAUCUUCGGAUGCAGAGGAGGAAGGCUUCGGUGGCGCGAUAGCGUCAACGUCCUCAACCUACAAUGCAUCCCACCACAUGAUGAUGCCUGAAGAGCCUUGGUUUUUUG | -2.56
3 | GACCAAUCUGCCCUCAGAGCUCGAGAACAUCUUCGGAUGCAGAGGAGGUAGGCUUCGGUGGCGCGAUAGAGCCAACGUCCUCAACCUCCAAUGCAUCCCACCACAUGAUGAUGCCUGAAGAGCCUUGGUUUUUUG | -2.47
4 | GACCAAUCUGCCCUCAGAGCUCGAGAACAUCUUCGGAUGCAGAGGAGGCAGGCUUCGGUGGCGCGAUAGCGGCAACGCACUCAACCUCCAAUGCAUCCCACCACAUGAUGAUGCCUGAAGAGCCUUGCUUUUUUG | -4.09
5 | GACCAAUCUGCCCUCAGAGCUCGAGAACAUCUUCGGAUGCAGAGGAGGCAGGCUGCGGUGGCGCGAUAGCGCCAACGUCCUCAACCACCAAUGCAUCGCACCACAUGAGGAUGCCUGAAGCGCCUUGGUUUUUUG | -6.47
6 | GACCAAUAUGCCCUCAGAGCUCGAGAACAUCUUCGGAUGCAGAGGAGGCAGGCUUCGGUGGCGCGAUAGCGCCAACGUCCUCAACCUCCAAUGCAUCCCACCACAUGAUGAUGCCUGAAGAGCCUUGGUUUUUUU | -0.432
7 | GACCAAUCUAACCUCAGAGCUCGAGAACAUCUUCGGAUGCAUAGGAGACAGGCUUCGGUGGCGCGAUAGCGCCAACGUCCUCAACCUCCAGUGCAUCCCACCACAUGAUGAUGCUUGAAGAGCCUUGGUUUUUUG | -2.2
8 | GACCAAUCUGCCCUCAGAGCUCGAGAACGUCUUCGGAUGCAGAGGAGGCAGGCUUCGGUGGCGCGAUAGCUCCAACGUCCUCAACCUCCAAUGCAUCCCACCACAUGAUGAUGCCUGAAGAGCCUUGGUUUUUUG | -1.72
9 | GACCAAUCUGCCCUCAGAGCUCGCGAACAUCUUCGGAUGCAGAGGAGCCAGGCUUCGGUGGCGCGAUAUCGCCAACGUCCUCAACCUCCAAUGCAUCCCACCACAUGAUGAUGCCUGAAGAGCCUUGGUUUUUUG | -6.7
10 | GACCAAUCUGCCCUCAGAGCUCGAGAACAUCUUCGGAUGCAGAGGAGGCAGGCUUCGGUGGCGCGAUAGCGUCAACGCCCUCAACCUCCAAUGCAUCCCACCACAUGAUGAUGCCUGAAGAGCCUUGGUUUUUUG | -0.528
11 | GACCAAUCUGCCCUCAGAGCUCGAGAACAUCUCCGGAUGCAGAGGGGGCAGGCUUCGGUGGCGCGAUAGCGCCAACGUCCUCAACCUUCAAUGCAUCCCACCACAUGAUGAUGCCUGAAGUGCCUUGGUUUUUUG | -6.28
12 | GACCAAUCUGCCUUCAGAGCUCGAGAACAUCUUCGGAUGCAGAGGGGGCAGGCUUCGGUGGCGCGAUAGCGCCAACGUCCUCAACCUCCAAUGCAUCCCACCAGAUGAUGAUGCCUGAAGAGCCUUGGUUUUUUG | -5.37
13 | GACCAAUCUGCCCUCAGAGCUCGAGAACAUCUUCGGAUGCAGAGGAGGCAGGCUUCGGUGGCGUGAUAGCGCCAACGUCCUCGACCUCCAAUGCAUCCCACCACAUGAUGCUGCCUGAAGAGCCUUGGUUUUUUG | -2.93
14 | GACCAAUCUGCCCUCAGAGCUCGAGAACAUCUUCGGAUGCAGAGGAGACAGGCUUCGGUGCCGCGUUAGCGCCAACGUCCUCAACCUCCAAUGCAUCCCACCACAUGAUGAUGCCUGAAGAGCCUUGGUUUUUUG | -2.1
15 | GACCAAUCUGCCCUCAGAGCUCGAGAACGUCUUCGGAUGCAGAGGAGGCUGGCUUCGGUGGCGCGAUAGGGCCAACGUCCUCAACCUCCAAUGCAUCCCACCACAUGAUGAUACCUGAAGAGCCUUGGUUUUUUG | -5.1
16 | GACCAAUCUGCACUCAGAGCUCGAGAACAUCUUCGGAUGCAGAGGAGGCUGGCUUCGGUGGCGCGAUAGAGCCAACGUCCUCAACCUCCAAUGCAUCCCACCACAUGAUGAUGCCUGAAGAGCCUUGGUUUUUUG | -3.58
17 | GACCAAUCUGCCCUCAGAGCUCGAGAACAUCUUCGGUUGCACAGGAGGGAGGCUUCGGUGGCGCGAUAGCGCCAACGUCCUCAAUCUCCAAUUCAUCCCACUACAUGAUGAUGCCUGAAGAGCCUUGGUUUUGUG | -5.53
18 | GACUAAUCUGCCCUCAGAGCUCGAGAACAUCUUCGGAUGCAGAGUAGGCAGGCUUCGGUGGCGCGAUAGCGCCAACGUCCUCAACCUCCAAUGCAUCCCACCACAUGAUGAUGCCUGAAGAGCAUUGGUUUUUUG | 0.121
19 | GACCAAUCUGCCCUCAGAGCUCGAGAACAUCUUCGGAUGCAGAGGAGGCAGGCUUCGGUGGCCCGAUAGCUCCAACGUCCUCAACCUCCAAUGCAACCCUCCACAUGAUGAUGCCUUAAGAGCCUUGGUUUUUGG | -5.35
20 | GACCAAUCUGCCCUCAGAGCUCGAGAACAUCUUCGGAUGCAGAGGAGGCAGGCUUCGGUGGCGCGAUAGCGCCAACGUCCUCAAGCUCCAAUGCAUCCCACCACAUGAUGAUGCUUGAAGAGCCUUGGUUUUUUG | -1.86
21 | GACCAAUCUGCCCUCAGAGCUCGGGAACAUCUUCGGAUGCAGAGGAGACAGGCUUCGGUGGCGCGAUAGCGCCAACGUCCUCAACCUCCAAUGCAUCCCACCACAUGAUGAUGCCUGAAGAGCCUUGGUUUUUUG | -1.73

Row | Variant | polymerase ribozyme fitness (log ratio)
22 | GACCGAUCUGCCCACAGAGCUCGAGAACAUCUUCGGAUGCAGAGGAGGCAGGCUUCGGUGGCGCGAUAGCGCCAACGUCCUCAACCUCCAAUGCAUCCCACCACAUGAUGAUGCCUGAAGAGCCUUGGUUUUUUG | -1.75
23 | GACCAAUUUGCCCUCAGAGCUGGAGAACAUCUUCGGAUGCAGAGGAGGCAGGCUUCGGUGGCGUGAUAGCGCCAACGUCCUCAACCUCCAAUGCAUCCCACCACAUGAUGAAGCCUGAAGAGCCAUGGUCUUUUG | -2.33
24 | GAUCAAUCUGCCCUCAGAGCUGGAGAACAUCUUCGGAUGCAGAGGAGGCAGGCUUCGGUGGCGCGAUAGCGCCAACGUCCUCAACCUCCAAUGCAUCCCACCACAUGAUGAUGCCUGAAGAGCCUUGGUUUUUUG | -3.12
25 | GACCAAUCUGCCAUCAGAGCCCGAGAACAUCUUCGGAUGCAGAGGAGGCUGGCUUCGGUGGCGCGAUAGCGCCAACGUCCUCAACCUCCAAUGCAUCUCACCACAAGAUGAUGCUUGAAGAGCCUUGGUUUUUUG | -6.68
26 | GACCAAUCUGCCCUCAGAGCUCGAGAACAUCUUCGGAUGCGGAGGAGGCAGACUUCGGCGGCGCGAUAGCGCCAACGUCCUCAACCUCCAAUGCAUCCCACCACAUGAUGAUGCCUGAAGAGCCGUGGUUUUUUG | -1.61
27 | GACCAAUCUGCCCUCAGAGCUCGAGAACAUCUUCGGAUGCAGAGGAGGCAGGCUUCGGUGGCGCGAUAGCGUCAACGUCCUCAACCUCCAAUGCAGCCCACCACAAGAUGAUACCUGAAGAGCCUUGGUUUUUUG | -2.89
28 | GACCAAUCUGCACUCAGAGCUCGAGAACAUCUUCGGAUGCAGAGGAGGCAUGCUUCGGUGGCGCGAUAGCGCCAACGUCCUCAACCUCCGAUGCAUCCCACCACAUGAUGAUGCCUGAAGAGCCUUGGUUUUUUG | -2.76
29 | GACCAAUCUGCCCUCAGAGCUCGAGAACAUCUUCGGAUGCAUAGGAGGCAGGCUUCGGUGGCGCGAUAGCGCCAACGACCUCAACCUCCAAUGCAUCCCACCACAUGAUGAUGCCUGAAGAGCCUUGGUUUUUUG | -2.36
30 | GACCAAUCUGCCCUCAGAGCUCGAGAACAUCUUCGGAUGCAGAGGAGGCAAGCUUCUGUGGCGCGAUAGCGCCAACGUCCUCAACCUCCAAUGCAUCCCACCACAUGAUGAUGCCUGAAGAGCCUUGGUUUUUUG | -1.5
31 | GACAAAUCUGCCCUCAGAGCUCGAGAACAUCUUCGGAUGCAGAGGAGGCAGGCUUCGGUGGCGUGAUAGCGCCAACGUCCUCAACCUCCAAUGCAUCCCACCACAUGAUGAUGCCUGAAGAGCCUUGGUUUUUUG | -1.24
32 | GACCAAUCUGCCCUCAGAGCUCGAGAACAUCUUCGGAUGCUGAGGUGGCAGGCUUCGGUGGCGCGAUAGCGCCAACGUCCUCAACCUCCAAUGCAUCCCACCACAUGAUGAUGCAUGAAUAGGCUUGGUUUUUUG | -2.25
33 | GACCAAUGUGCCCUCAGAGCUCGAGAAAAUCUUCGGAUGCAGAGGAGGCAGGCUUCGGUGACGCGAUAGCGCCAACGUCCUCAACCUCCAAUGCAUCCCACCACAUGAUGAUGCCUGAAGAGCCUUGGUUUUUUG | -3.79
34 | GACCAAUCUGCCCUCAGAGCUCGAGAACAUCUUCGGAUGCAGAGGAGGCAGGCUUCGGUGGCGCGAUAGCGCCAACGUCCUCAACCUCCAAUGCAUCCCAACACAUGAUGAUGCCUGAAGAGCCUUGGUGUUUUG | -2.8
35 | GACCAAUCUGCCCUCAGAGCUCGAGAACAUCUUCGGAUGCAGAGGAGGCAGGCUUAGGUGGCGCGAUAGCGCCAACGGCCUCAACAUCCAAUGCAUCCCACCACAUGAUGAUGCCUGAAUAGCCUUGGUUUUUUG | -0.426
36 | GACCAUUCUGCCCUCAGAGCUCGAGAACAUCUUCGGAUACAGAGGAGGCAGGCUUCGGUGGCGCGAUAGCGCCAACGUCCUCAACCUACAAUGCAUCCCACCACAUGAUGAUGCCUGAAGAGCCUUGGUUUUUUG | -1.23
37 | GACCAAGCUGCCCUCAGAGCUCGAGAACGUCUUCGGAUGCAGAGGAGGCAGGCUUCGGUGGCGCGAUAGCGCCAACGUCCUCAACCUCAAAUGCAUCCCACCACAUGAUGAUGCAUGAAGAACCUUGGUUUUUUG | -1.64
38 | GAUCAAUCUGCCCUCAGAGCUCGAGAACAUCUUCGGCUGCAGAGGAGGCAGGCUUCGGUGGCGCGAUAGCGCCAACGUCCUCAACCUCCAAUGCAUCCCACCACAUGAUGAUGCCUGAAGAACCUUGGUUUUUUG | -2.49
39 | GACCAAUCUGCCCUCAGAGCUCGAGAACAUCUUAGGAUGCAGAGGAGGCAGGCUUCGGUGGCGCGAUAGCGCCAACGUCCUCAACCUCCAAUGCAUCCCACCACAUGAUAAUGCCUGAAGAGCCUUGGUUUUUUG | -5.44
40 | GACCAAUCUGCCCUCAGAGCUCGAGAACAUCUUCGGAUGCCGAGGAGGCAGCCUUCGGUGGCGCGAUAGCGCGAACGUCCUCAACCUCCAAUGCAUCCCACCACAUGAUGAUGCCUGAAGAGCCUUGGUUUUUUG | -2.96
41 | GACCAAUCUUCCCUCAGAGCUCGAGAACAUCUUCGGAUGCAGAGGAGGCUGGCUUCGGUGGCACGAUAGCGCCAACGUCCUCAACCUCCAAUGCAUCCCACCACAUGAUGAUGCCUGAAGAGCCUUGGUUUUUUG | -3.1
42 | GACCAAUCAGCCCUCAGAGCUCGAGAACAUUUUCGGAUGCAGAUGAGGCAGUCUUCGGUGUCGCGAUAGCGCCAACGUCCUCAACCUCCAAUGCAUCCCACCACAUGAUGUUGCCUGAAGAGCCUUGGUUUUUUG | -6.18
